# Reference: patent US20200368361A1 (Regeneron, published 2020)
# Numbering of substitutions follows the chain as printed. In names and notes the source's numbering stands.
# T1: full length monkey MSR1 on HEK293.mfMSR1 cells (Macaca fascicularis, UniProt A0A2K5UWE2 1-451)
# T1 construct: whole, on cells
# T1 sequence: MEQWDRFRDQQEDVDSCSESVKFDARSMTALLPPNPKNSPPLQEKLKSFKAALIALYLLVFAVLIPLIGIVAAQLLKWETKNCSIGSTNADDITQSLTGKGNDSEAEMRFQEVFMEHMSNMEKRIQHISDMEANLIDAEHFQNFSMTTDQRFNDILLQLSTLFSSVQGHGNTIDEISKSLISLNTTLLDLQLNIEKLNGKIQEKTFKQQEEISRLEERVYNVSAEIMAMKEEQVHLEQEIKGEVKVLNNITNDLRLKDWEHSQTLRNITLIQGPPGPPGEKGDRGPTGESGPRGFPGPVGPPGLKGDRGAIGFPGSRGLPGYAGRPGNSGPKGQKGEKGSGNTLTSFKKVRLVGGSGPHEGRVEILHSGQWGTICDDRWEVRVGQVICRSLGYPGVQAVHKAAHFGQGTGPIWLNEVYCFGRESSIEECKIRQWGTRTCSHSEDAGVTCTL
# T2: full length human MSR1 with a C-terminal Myc tag on HEK293.Myc.hMSR1 cells (human, UniProt P21757 1-451)
# T2 construct: whole, on cells
# T2 sequence (looked up): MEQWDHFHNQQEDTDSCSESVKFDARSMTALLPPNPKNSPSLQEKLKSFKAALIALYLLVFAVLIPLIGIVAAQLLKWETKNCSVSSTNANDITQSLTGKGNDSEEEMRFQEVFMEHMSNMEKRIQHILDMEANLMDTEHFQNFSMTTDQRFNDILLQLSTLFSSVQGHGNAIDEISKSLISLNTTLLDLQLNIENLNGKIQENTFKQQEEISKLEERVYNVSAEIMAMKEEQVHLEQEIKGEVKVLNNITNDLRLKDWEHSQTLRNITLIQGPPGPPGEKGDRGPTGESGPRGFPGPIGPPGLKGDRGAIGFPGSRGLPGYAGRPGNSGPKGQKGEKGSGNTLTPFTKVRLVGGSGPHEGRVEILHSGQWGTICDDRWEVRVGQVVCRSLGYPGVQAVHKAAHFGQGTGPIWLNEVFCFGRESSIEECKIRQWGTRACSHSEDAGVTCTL
# T3: mouse MSR1 on RAW264.7 cells (mouse, UniProt P30204 1-458)
# T3 construct: whole, on cells
# T3 sequence (looked up): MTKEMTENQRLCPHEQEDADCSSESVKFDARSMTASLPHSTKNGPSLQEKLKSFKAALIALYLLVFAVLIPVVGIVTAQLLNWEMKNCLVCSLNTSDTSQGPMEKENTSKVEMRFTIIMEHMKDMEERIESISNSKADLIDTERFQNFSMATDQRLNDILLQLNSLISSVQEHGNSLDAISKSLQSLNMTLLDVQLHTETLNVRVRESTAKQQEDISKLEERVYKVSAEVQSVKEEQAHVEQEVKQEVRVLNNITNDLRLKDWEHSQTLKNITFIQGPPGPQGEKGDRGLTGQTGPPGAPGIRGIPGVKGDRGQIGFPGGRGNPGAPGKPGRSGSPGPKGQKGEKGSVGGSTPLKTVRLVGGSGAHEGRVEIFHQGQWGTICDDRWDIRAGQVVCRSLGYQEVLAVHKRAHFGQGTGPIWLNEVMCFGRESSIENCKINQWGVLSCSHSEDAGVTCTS
# B1: H2aM21229N (antibody, mouse IgG2a, V domains shown)
# VH: EVQLVESGGGLVKPGGSLRLSCAASGFTFSRYSMNWVRQAPGKGLEWVSSISSSSSYIYYGDTVKGRFTISRDNAKKSLYLQMNSLRAEDTAVYYCVRDRGQLVLYFDYWGQGTLVTVSS
# VL: DIQMTQSPASLSTSIRDRVTITCRASLSISSFLNWFQQRPGKAPKLLIYVASNLQSGVPSRFSDSGSGTDFTLTISSLQPEDFATYYCQQNYSTPPITFGQGTRLEIK
# notes: mouse IgG2a Fc
# B2: H2aM25695N (antibody, mouse IgG2a, V domains shown)
# VH: QVQLQESGPGLVKPSETLSLTCTVTGGSISRNYWSWIRQPPGKGLEWIGYIYYSGSINYNPSLKSRVTISVDMSKNQFSLKLNSVTAADTAVYYCARDRWNWKYGMDVWGQGTTVIVSS
# VL: EIVLTQSPGTLSLSPGERATLSCRASQTVRNSYLAWYHQKPGQAPRLLIYGASSRATGIPDRFSGSGSGTDFTLTISRLEPEDFAVYYCQQYGSSYWTFGQGTKMEIKR
# notes: mouse IgG2a Fc
# B3: H1H27751P-N297Q (antibody, human IgG1, V domains shown)
# VH: EVQLVESGGGLVQPGGSLRLSCAASGFTFSNYAMHWVRQAPGKGLEYVSAISSNGGSTYYADSVKGRITISRDNSKNTLYLQMGSLRAEDMAVYYCARGRPYYYYFGMDVWGQGTTVTVSS
# VL: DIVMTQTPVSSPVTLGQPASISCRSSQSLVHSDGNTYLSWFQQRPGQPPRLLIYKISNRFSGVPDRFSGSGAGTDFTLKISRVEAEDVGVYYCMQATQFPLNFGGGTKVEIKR
# notes: human IgG1 Fc with N297Q
# B4: H1H27729P-N297Q (antibody, human IgG1, V domains shown)
# VH: QVQLVESGGGLVKPGGSLRLSCAASGFIFSDYYMSWIRQAPGKGLEWVSYISSSGTTIYGDSVKGRFTMSRDNAKNSLYLQMNSLRAEDTAVYYCARNYALFDYWGQGTLVTVSS
# VL: DIQMTQSPSSLSASVGDRVTITCQASQDISKYLNWYQQKPGKAPKLLIYYTSNLETGVPSRFSGSGSGTDFTFTISSLQPEDIATYYCHQSDYLPFTFGPGTKVDIKR
# notes: human IgG1 Fc with N297Q
# B5: H1H27761P2-N297Q (antibody, human IgG1, V domains shown)
# VH: EVQLVESGGDLVQPGGSLRLSCSASGFTFNIYAMSWVRQAPGKGLEWVSGISGSGGSTYYADSVKGRFTISRDNSKNTLYFQMNSLRVEDTAVYYCAKKISSSSYYYYAMDVWGQGTTVTVSS
# VL: not shown
# notes: human IgG1 Fc with N297Q; also called H1H27761P-N297Q
# B6: H1H27766P2-N297Q (antibody, human IgG1, V domains shown)
# VH: EVQLVESGGGLVQPGGSLRLSCAASGFTFSSFAMSWVRQAPGKELEWVSSISGRGGSTYYADSVRGRFTISRDNSKITLYLQMNSLRAEDTAVYYCAKDIVFRYTSSAYWYFDLWGRGTLVTVSS
# VL: not shown
# notes: human IgG1 Fc with N297Q; also called H1H27766P-N297Q
# B7: H1H27734P-N297Q (antibody, human IgG1, V domains shown)
# VH: EVQLVESRGGLVQPGGSLRLSCAASGFTFSSYAMSWVRQAPGKGLEWVSAISGSGGSTFYADSVKGRFTISRDNSKNTVYLQMNSLRAEDTAVYYCAKALVLRFLEWLGDYWGQGTLVTVSS
# VL: DIQMTQSPSTLSASVGDRVTITCRASQSISSWLAWFQQKPGKAPKLLIYKASSLESGVPSRFSGSGSGTEFTLTISSLQPDDFATYYCQQYKSYWTFGQGTKVEIKR
# notes: human IgG1 Fc with N297Q
# B8: H2aM21228N (antibody, mouse IgG2a, V domains shown)
# VH: VQLVESGGGLVQPGGSLRLSCAASGFTFSDHYMDWVRQAPGKGLEWVGRTRNKANSHTTEYAASVSGRFTISRDDSKNSLYLQMNSLKTEDTAVYYCTRAGIIGTLFDYWGQGTLVTVSS
# VL: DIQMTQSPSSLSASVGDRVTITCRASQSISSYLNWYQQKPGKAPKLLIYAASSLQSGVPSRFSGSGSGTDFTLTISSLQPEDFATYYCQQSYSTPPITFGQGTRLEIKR
# notes: mouse IgG2a Fc
# B9: H1H27759P2-N297Q (antibody, human IgG1, V domains shown)
# VH: EVQLVESGGGFVQPGGSLRLSCAASGFTFSSYAMSWVRQAPGKGLEWVSAISGTGSNTYYADSVKGRFTISRDNSKNTLYLQMNSLRAEDTAVYYCAKDRVTTVTYYFDYWGQGTLVTVSS
# VL: not shown
# notes: human IgG1 Fc with N297Q; also called H1H27759P-N297Q
# B10: H1xH27759P2 (antibody, V domains shown)
# VH: B9 VH
# VL: not shown
# notes: prefix H1xH not explained for the anti-MSR1 antibodies
# B11: H1H27731P-N297Q (antibody, V domains shown)
# VH: QLQLQESGPGLVKPSETLSLTCTVSGGSISRISYYWGWIRQPPGKGLEWIGSIYDSGSTYYNPSLKSRVTISIDTSKNQFSLKLSSVTAADTAVYYCVRYSSSSAFAFDYWGQGTLVTVSS
# VL: DIQMTQSPSSVSASVGDRVTITCRASQGISSWLAWYQQKPGKAPKLLIYAASSLQSGVPSRFSGSGSGTDFTLTISSLQPEDFATYYCQQANSFPFTFGPGTKVDIKR
# notes: human IgG1 Fc with N297Q
# B12: H1H27747P-N297Q (antibody, human IgG1, V domains shown)
# VH: QVQLVESGGAVVQPGRSLRLSCAASGFTFSYYGMHWVRQAPGKGLEWVAVISYDGSKKYYADSVKGRFTISRDNSKNTLYLQMNSLRAEDTAVYYCAKDLTVDFYYGMDVWGQGTTVTVSS
# VL: B11 VL with A51T, V58A, Y87F, F96Y, P100Q, V104L, D105E
# notes: human IgG1 Fc with N297Q
# B13: H1H27754P-N297Q (antibody, human IgG1, V domains shown)
# VH: EVQLVESGGGLVQPGGSLRLSCAASGFTFRTYAMTWVRQAPGKGLDWVSAITGDGGNTYYADSVKGRFTISRDNSKNTLYLQMNSLRAEDTAIYYCAKDQRFSFALYYFDYWGQGTLVTVSS
# VL: B11 VL with K42N, S52F, S93N, F96W, P100Q, D105E
# notes: human IgG1 Fc with N297Q
# B14: H1H27739P-N297Q (antibody, human IgG1, V domains shown)
# VH: EVQLVESGGGLVQPGGSLRLSCTASGFTFSSYAMSWVRQAPGKGLEWVSAISGTGSSTYFTDSVKGRFAISRDNSKNTLYLQMNSLRAEDTAVYYCAKDGEWLSTVTLFDYWGQGTLVTVSS
# VL: EIVMTQSPATLSVSPGERATLSCRASQSVSSNLAWYQQKPGQAPRLLIYGASTRATGIPARFSGSGSGTDFTLTISSLQSEDFALYYCQQYFIWPPHPTFGPGTKVDIKR
# notes: human IgG1 Fc with N297Q
# B15: H1xH29282P2 (antibody, V domains shown)
# VH: EVQLVESGGGLVQPGGSLRLSCAASGFTFSTYAMSWVRQAPGKGLEWVSTISGRSDITYFADSVKGRFTVSRDNSKTTLYLQMNSLRAEDTAVYYCATDDDLPLDYWGQGTLVTVSS
# VL: not shown
# notes: as for B10
# B16: H1H27762P2-N297Q (antibody, human IgG1, V domains shown)
# VH: QVQLVQSGAEVKKPGSSVKVSCKASGGTFSRYDISWVRQAPGQGLEWMGGIIPIFGTSNYAQKFQGRVTITTDESTSTVYMELSSLRSEDTAVYYCARGGRYGWFDPWGQGTLVTVSS
# VL: not shown
# notes: human IgG1 Fc with N297Q; also called H1H27762P-N297Q
# B17: H1xH29283P2 (antibody, V domains shown)
# VH: B16 VH with A9T, D33T, I34F, S58T, A97T
# VL: not shown
# notes: as for B10
# Biological target: T1, full length monkey MSR1 on …
# Experiment: ECL cell binding, HEK293.mfMSR1
# Method: (§1) All cells were washed once with 1×PBS with Ca²⁺/Mg²⁺ and counted with a Cellometer™ Auto T4 cell counter (Nexcelom Bioscience). Approximately 1.0×10⁴ cells were seeded separately onto 96-well carbon electrode plates [MULTI-ARRAY high bind plate, Meso Scale Diagnostics] and incubated for 1 hour at 37° C. Non-specific binding sites were then blocked by 2% BSA (w/v) in PBS with Ca²⁺/Mg²⁺ for 1 hour at room temperature. THP-1 cells were pre-incubated for 0.5 hours at room temperature in sample dilution buffer with: 1) 1 mg/mL Fc receptor block reagents to block Fc gamma receptors on THP-1 cell surface [whole molecule human IgG (Jackson Immunoresearch, Cat #009-000-003) for wells being tested with anti-MSR1-mFc antibodies or 2) whole molecule mIgG (Jackson Immunoresearch, Cat #015-000-003) for wells being tested with anti-MSR1-hFc antibodies. Antibody binding on HEK293.Myc.hMSR1, HEK293.mfMSR1 and HEK293 cells was tested without Fc receptor block reagents. […] Plates were then washed to remove unbound antibodies an AquaMax2000 plate washer with a cell washing head (MDS Analytical Technologies). […] Plates were washed and developed with Read Buffer (Meso Scale Diagnostics, Cat #R92TD-2) according to manufacturer's recommended procedure and luminescent signals were recorded with a SECTOR Imager 600 (Meso Scale Diagnostics). Luminescence intensity, measured in relative light units (RLU), was recorded to indicate the binding intensity of each antibody at the range of concentrations.
row,binding signal ratio to isotype control (11 nM),Binder
1,27 fold,B1
2,45 fold,B2
3,49 fold,B3
4,6 fold,B4
5,15 fold,B5
6,13 fold,B6
7,28 fold,B7
8,60 fold,B8
9,25 fold,B9
10,21 fold,B10
11,43 fold,B11
12,21 fold,B12
13,53 fold,B13
14,20 fold,B14
15,1 fold,B15
16,25 fold,B16
17,24 fold,B17

# Biological target: T2, full length human MSR1 with a …
# Experiment: ECL cell binding, HEK293.Myc.hMSR1
# Method: as §1
row,binding signal ratio to isotype control (11 nM),Binder
1,78 fold,B1
2,35 fold,B2
3,63 fold,B3
4,17 fold,B4
5,23 fold,B5
6,20 fold,B6
7,40 fold,B7
8,66 fold,B8
9,23 fold,B9
10,22 fold,B10
11,48 fold,B11
12,26 fold,B12
13,55 fold,B13
14,22 fold,B14
15,9 fold,B15
16,33 fold,B16
17,26 fold,B17

# Biological target: T3, mouse MSR1 on RAW264.7 cells
# Experiment: flow cytometry, RAW264.7 cells, 10 ug/mL;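 further: antibodies bound to RAW264.7 cells for 30 min on ice after Fc block with mouse IgG, S/N is MFI relative to unstained cells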
# Method: To block binding to Fc receptors, RAW264.7 cells were incubated for 30 minutes at 4° C. with 500 μg/mL mouse IgG (Jackson ImmunoResearch, Cat #015-000-003) diluted in staining buffer, while B16F10.9 cells remained in staining buffer. Following Fc receptor blocking, 10 μg/mL of anti-MSR1 antibodies or an isotype control antibody were added to the cells and were subsequently incubated for 30 minutes on ice. […] The signal to noise (S/N) was determined by calculating the ratio of the anti-MSR1 antibodies or the control antibodies MFI to the unstained sample MFI (Table 16).
MFI,S/N,Binder
3820,1,B3
3480,1,B4
3840,1,B5
3810,1,B6
4780,1,B7
3290,1,B9
3510,1,B11
3630,1,B12
5410,1,B13
3270,1,B14
3520,1,B16
